Test results as given in patent US12139531B2, “Compositions and methods useful in promoting milk production” (The Regents of the University of California, priority 2019, dated 2024).
“Also recorded” adds a separate entry of the source. One block for each molecule: values may come before it.

Tests used:
HC11 cells [1] = test: HC11 dome assay (milk dome formation on differentiation in DIP media); type: cell-based, mouse; settings: HC11 cells, increasing ECD concentration
Description: To investigate ROBO1 function during alveologenesis, Robo1 gene expression was inhibited in HC11 cells (Robo1 KD). HC11 cells are a well-established, prolactin-responsive model of lactation,^19,20. Cells in which Robo1 gene expression was not inhibited are referred to as WT or Robo1+/+ herein. To measure milk production, cells were grown to confluence and then primed by treatment with epidermal growth factor (EGF, 10 ng/ml). The EGF is administered for three days in combination with charcoal-stripped fetal bovine serum, followed by one day of charcoal-stripped fetal bovine serum in the absence of EGF. These primed cells are then differentiated by treatment with dexamethasone (1 μg/ml), insulin (5 μg/ml) and prolactin (Prl, 5 μg/ml) media (DIP media) for between 3 and 5 days (FIG. 2A). Differentiation (Dif) results in the development of milk-filled domes (FIG. 2B). […] If the cells were left undifferentiated (Undif), there was little dome formation in either WT or Robo1−/− cells (FIG. 2B). Next, tissue from Robo1 knockout mice (Robo1−/−) and wild type mice (WT or Robo1+/+) mice was analyzed. Mammary glands were harvested from pregnant day 18 WT and Robo1−/− animals and alveologenesis analyzed by serially sectioning, carmine staining and then quantifying the area occupied by alveoli in sections located at top, middle and bottom portions of the tissue.
Dome number formation in response to a titration of ROBO1 ECD fragments was quantified. […] A bovine ROBO1-Ig5 construct was also tested in this assay and, as with the rat constructs, more domes were formed in response to treatment with higher concentrations of […] (FIG. 7H).
HC11 cells were grown in RPMI 1640 media (Gibco) supplemented with 10% fetal bovine serum (BioFluid Technologies), 5 μg/mL insulin (Sigma), and 10 ng/ml epidermal growth factor (EGF; Sigma). To induce differentiation in HC11 cells, confluent plates were given fresh media (RPMI 1640 media supplemented with 5% charcoal-stripped fetal bovine serum (BioFluid Technologies), 5 μg/mL insulin, and 10 ng/ml epidermal growth factor (EGF; Sigma) for 3 days followed by 24 hours of priming in priming medium (RPMI 1640 media supplemented with 5% charcoal-stripped fetal bovine serum (BioFluid Technologies), and 5 μg/mL insulin. After priming, DIP medium (RPMI 1640 media supplemented with 5% charcoal-stripped fetal bovine serum (BioFluid Technologies), 10^−6 M dexamethasone (Sigma), 5 μg/mL insulin, and 5 μg/mL prolactin (National Hormone and Peptide program) was added with fresh media every 24 hours.

ROBO2 = target: T1, ROBO2 (Homo sapiens, UniProt Q9HCK4); test: ECD binding assay on Cos7 cells overexpressing Robo2; settings: Cos7 cells overexpressing Robo2, sodium azide, 1H incubation, immunostaining
T1 construct: expressed in transfected cells; host or cells: Cos7
T1 sequence (Q9HCK4 22-1378): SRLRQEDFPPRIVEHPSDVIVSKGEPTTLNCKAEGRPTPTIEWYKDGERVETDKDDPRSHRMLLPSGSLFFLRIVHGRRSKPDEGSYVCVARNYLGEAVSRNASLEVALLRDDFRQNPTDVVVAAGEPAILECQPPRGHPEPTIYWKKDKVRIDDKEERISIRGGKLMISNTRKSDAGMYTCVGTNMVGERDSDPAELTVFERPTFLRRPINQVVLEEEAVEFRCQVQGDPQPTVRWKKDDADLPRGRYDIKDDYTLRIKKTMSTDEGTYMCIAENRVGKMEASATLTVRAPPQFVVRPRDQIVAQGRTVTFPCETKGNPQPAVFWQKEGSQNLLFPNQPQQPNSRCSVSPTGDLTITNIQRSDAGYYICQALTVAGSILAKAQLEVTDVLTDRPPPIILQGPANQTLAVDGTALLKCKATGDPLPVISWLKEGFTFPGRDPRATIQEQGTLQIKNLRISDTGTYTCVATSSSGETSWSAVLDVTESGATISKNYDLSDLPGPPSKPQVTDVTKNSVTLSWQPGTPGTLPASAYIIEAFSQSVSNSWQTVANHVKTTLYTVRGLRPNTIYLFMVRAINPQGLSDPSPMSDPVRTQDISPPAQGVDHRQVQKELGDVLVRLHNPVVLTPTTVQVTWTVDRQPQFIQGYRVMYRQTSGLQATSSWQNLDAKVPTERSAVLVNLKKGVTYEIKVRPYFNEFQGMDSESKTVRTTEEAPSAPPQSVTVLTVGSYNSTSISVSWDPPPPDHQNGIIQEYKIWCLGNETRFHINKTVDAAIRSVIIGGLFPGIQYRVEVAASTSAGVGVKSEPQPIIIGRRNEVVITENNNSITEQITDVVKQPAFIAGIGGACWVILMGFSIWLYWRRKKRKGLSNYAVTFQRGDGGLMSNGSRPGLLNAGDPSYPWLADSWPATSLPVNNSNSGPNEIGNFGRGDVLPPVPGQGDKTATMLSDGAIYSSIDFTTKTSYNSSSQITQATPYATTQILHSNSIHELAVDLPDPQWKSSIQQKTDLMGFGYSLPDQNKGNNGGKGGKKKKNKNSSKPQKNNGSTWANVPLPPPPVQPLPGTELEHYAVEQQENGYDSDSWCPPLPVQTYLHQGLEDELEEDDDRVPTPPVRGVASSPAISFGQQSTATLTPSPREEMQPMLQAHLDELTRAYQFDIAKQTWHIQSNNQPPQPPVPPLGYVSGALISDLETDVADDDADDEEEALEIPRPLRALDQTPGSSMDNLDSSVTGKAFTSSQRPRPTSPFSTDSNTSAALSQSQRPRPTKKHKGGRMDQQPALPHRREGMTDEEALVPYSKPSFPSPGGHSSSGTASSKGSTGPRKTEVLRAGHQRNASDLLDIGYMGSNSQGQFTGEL
Description: Soluble ROBO1 ECD fragments ROBO1-Ig2 and ROBO1-Ig5 generated in the presence of heparin were used in a dome assay. […] Because treatment with heparin had only a modest positive effect on ROBO1 ECD production and a deleterious effect on their function (FIG. 6C, E), the use of heparin to generate soluble ROBO1 ECD fragments was not pursued. The ability of a ROBO1 ECD fragment to bind ROBO2 receptors was tested by overexpressing Robo2 in Cos7 cells, treating cells with sodium azide to prevent protein internalization and then incubating cells with ROBO1-Ecto-HA 1H prior to fixation and immunostaining.

DCC = target: T2, DCC (Homo sapiens, UniProt P43146); test: ECD binding assay on cells overexpressing DCC
T2 construct: expressed in transfected cells
Description: FIG. 6: ROBO1 extracellular domains. (A) Cartoon showing domain structure of the ROBO1 extracellular domain (ECD) panel (B) Western blot of ROBO1 ECDs and control DCC ECDs in lysates and conditioned media of HEK cells overexpressing plasmid constructs. (C) Dot blot assay of media (left) and quantification (right) of ROBO1-Ig5 secretion from HEK cells overexpressing Robo-Ig5 in the absence and presence of heparin (300 ng/ml). […] (F) ECD binding assay using ROBO1-Ecto and cells overexpressing ROBO2 (top, green) and cells overexpressing DCC (bottom, green). ROBO1-Ecto-HA (red) binds to ROBO2, but not to DCC.

HC11 cells [2] = test: Western blot analysis of WAP and PLIN2 in HC11 cells; type: cell-based, mouse; settings: ECD titration
Description: To determine whether the promotion of dome formation also results in higher milk production, HC11 cells were differentiated in the presence or absence of ROBO1-ECD fragments that were added to cells simultaneously with DIP media. Cells were harvested and the expression of WAP and Lalba assessed by RT-qPCR. […] WAP expression levels were not increased in cells treated with DCC-Ig4 (FIG. 7K). Next, Western blot analysis of WAP and PLIN2 was performed on cells treated with ROBO1-Ig5 and ROBO1-Ecto.
Protein lysates were prepared by directly lysing adherent cells in 1× sample buffer supplemented with 5% beta-mercaptoethanol and boiled for 5 minutes. Protein lysate was resolved by SDS-PAGE and transferred to a PVDF for 90 minutes at 400 mA or overnight at 30 mA. Primary antibodies were used at the concentration indicated in Table 1 and incubated overnight at 4° C. HRP conjugated secondary antibodies (Jackson Labs) were used at 1:3000 and incubated for 45 minutes at room temp. All proteins were detected using Clarity ECL (BioRad) using a BioRad Chemi-Doc MP Imager and quantified using ImageLab software as previously described a.

HC11 cells [3] = test: Bodipy 493/503 neutral lipid staining of differentiated HC11 cells; type: cell-based, mouse; settings: Bodipy493/503 staining
Description: To determine whether the ROBO1 ECD fragments influence NOTCH4 signaling, HC11 assays were performed to monitor dome formation using both phase contrast microscopy (FIG. 7A, B, top), and fluorescent microscopy using hydrophobic Bodipy493/503 that binds neutral lipids (FIG. 7A, B, bottom). Undifferentiated (Undif) cells are distinct with interconnecting processes visible in phase contrast and little/no Bodipy staining (FIG. 7A). Upon differentiation and prolactin treatment, small lipid droplets accumulate that appear as dark-rimmed circles in phase contrast (FIG. 7B, top) and as punctate green circles by Bodipy staining (FIG. 7B, bottom).
Place cells in a half-volume of buffer or media. Make a 2× solution (2 μg/ml=7.6 μM) of Invitrogen™ BODIPY™ 493/503 dye in 0.5 mL volume of the same pre-warmed buffer or media (no cells, no BSA or serum) and mix vigorously to mechanically emulsify this solution. Immediately add to the solution of cells, mix and incubate up to 30 min.

Notch signaling = test: RT-qPCR of Notch effector expression (Hey1, Hes1) in HC11 cells; type: cell-based, mouse; settings: HC11 cells treated with ROBO1-ECD fragments
Description: To examine the effects of ROBO1-ECD fragments on Notch signaling, HC11 cells were treated with ROBO1-ECD fragments and Notch effector expression assessed. […] In addition, HC11 cells were treated with ROBO-Ig5 during differentiation. These cells were then fractionated and a Western blot performed to detect HES1 and NOTCH4-ICD (FIG. 8B).
Total RNA was harvested from cells lysed in TRIzol reagent (Invitrogen) and phase separated according to manufacturer's protocol with an additional overnight RNA precipitation stem in ethanol (Macias et al., 2011). The RNA was further purified with TURBO DNase (Ambion) treatment. Total RNA quality was analyzed by agarose gel electrophoresis and quantified with an ND-1000 spectrophotometer (NanoDrop). cDNA libraries were prepared from 1 μg of total RNA using iScript cDNA synthesis kit (BioRad). Quantitative RT-PCR was performed in triplicates using light Cycler 480 SYBR Green I Master (Roche) and quantified using BioRad CFX'Connect Real-Time System and CFX Manager software (BioRad). Results were normalized to GAPDH.

T2 sequence (P43146 26-1447, species assumed): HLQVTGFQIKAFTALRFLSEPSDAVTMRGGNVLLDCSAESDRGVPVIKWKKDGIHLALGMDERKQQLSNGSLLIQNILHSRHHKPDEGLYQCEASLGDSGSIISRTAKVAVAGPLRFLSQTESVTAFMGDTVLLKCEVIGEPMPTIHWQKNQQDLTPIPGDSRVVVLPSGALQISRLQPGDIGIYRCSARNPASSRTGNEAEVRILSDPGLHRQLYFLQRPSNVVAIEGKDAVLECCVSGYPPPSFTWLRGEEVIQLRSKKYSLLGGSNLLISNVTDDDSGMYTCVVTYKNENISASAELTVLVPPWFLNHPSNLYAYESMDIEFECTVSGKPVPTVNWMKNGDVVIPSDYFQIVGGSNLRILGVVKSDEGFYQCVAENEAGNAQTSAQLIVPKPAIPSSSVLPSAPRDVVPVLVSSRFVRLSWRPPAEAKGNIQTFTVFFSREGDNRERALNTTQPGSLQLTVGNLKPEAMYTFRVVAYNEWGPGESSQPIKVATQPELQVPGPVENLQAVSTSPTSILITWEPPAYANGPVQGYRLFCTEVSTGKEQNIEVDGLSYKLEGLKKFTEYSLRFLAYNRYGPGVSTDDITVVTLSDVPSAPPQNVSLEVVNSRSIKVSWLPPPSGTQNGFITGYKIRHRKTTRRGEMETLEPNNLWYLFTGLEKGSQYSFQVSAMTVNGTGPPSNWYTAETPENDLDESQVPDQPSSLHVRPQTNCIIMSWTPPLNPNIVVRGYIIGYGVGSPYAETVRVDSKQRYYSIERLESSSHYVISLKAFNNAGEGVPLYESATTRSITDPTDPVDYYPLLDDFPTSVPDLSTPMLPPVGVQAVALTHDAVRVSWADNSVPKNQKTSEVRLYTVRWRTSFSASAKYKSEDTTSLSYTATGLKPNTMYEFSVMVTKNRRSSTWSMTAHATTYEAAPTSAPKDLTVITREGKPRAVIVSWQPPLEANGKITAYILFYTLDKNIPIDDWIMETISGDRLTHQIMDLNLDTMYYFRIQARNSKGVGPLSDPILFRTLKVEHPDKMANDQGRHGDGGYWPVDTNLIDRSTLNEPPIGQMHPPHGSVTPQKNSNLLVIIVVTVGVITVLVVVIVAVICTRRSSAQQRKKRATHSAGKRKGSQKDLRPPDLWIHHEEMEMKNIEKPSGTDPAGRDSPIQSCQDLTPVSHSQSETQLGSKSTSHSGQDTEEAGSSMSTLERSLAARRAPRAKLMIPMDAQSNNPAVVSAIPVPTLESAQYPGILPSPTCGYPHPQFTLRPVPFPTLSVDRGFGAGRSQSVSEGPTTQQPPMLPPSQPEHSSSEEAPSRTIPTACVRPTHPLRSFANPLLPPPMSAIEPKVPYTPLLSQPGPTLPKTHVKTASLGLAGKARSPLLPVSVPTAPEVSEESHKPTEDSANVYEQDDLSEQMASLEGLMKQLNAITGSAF

- binding to ROBO2 (ROBO2): does not bind
B1: DCC-Ig2: extracellular domain of Deleted in Colorectal Cancer comprising two Ig domains, HA tagged, negative control (protein, listed as Rattus norvegicus)
chain: FTSLHFVSEPSDAVTMRGGNVLLNCSAESDRGVPVIKWKKDGLILALGMDDRKQQLPNGSLLIQNILHSRHHKPDEGLYQCEASLGDSGSIISRTAKVMVAGPLRFLSQTESITAFMGDTVLLKCEVIGDPMPTIHWQKNQQDLNPIPGDSRVVVLPSGALQISRLQPGDSGVYRCSARNPASTRTGNEAEVRILSDPGL
modifications: HA tag
notes: extracellular domain of Deleted in Colorectal Cancer comprising two Ig domains, HA tagged, negative control
- dome formation in response to a titration of ECD fragments (HC11 cells [1]): not observed

- binding to DCC (DCC): not to DCC
- binding to ROBO2 (ROBO2): binds
B2: ROBO1-Ecto-HA: ROBO1-Ecto fused to HA (hemagglutinin) tag (protein)
chain: SRLRQEDFPPRIVEHPSDLIVSKGEPATLNCKAEGRPTPTIEWYKGGERVETDKDDPRSHRMLLPSGSLFFLRIVHGRKSRPDEGVYICVARNYLGEAVSHNASLEVAILRDDFRQNPSDVMVAVGEPAVMECQPPRGHPEPTISWKKDGSPLDDKDERITIRGGKLMITYTRKSDAGKYVCVGTNMVGERESEVAELTVLERPSFVKRPSNLAVTVDDSAEFKCEARGDPVPTVRWRKDDGELPKSRYEIRDDHTLKIRKVTAGDMGSYTCVAENMVGKAEASATLTVQEPPHFVVKPRDQVVALGRTVTFQCEATGNPQPAIFWRREGSQNLLFSYQPPQSSSRFSVSQTGDLTVTNVQRSDVGYYICQTLNVAGSIITKAYLEVTDVIADRPPPVIRQGPVNQTVAVDGTLTLSCVATGSPVPTILWRKDGVLVSTQDSRIKQLESGVLQIRYAKLGDTGRYTCTASTPSGEATWSAYIEVQEFGVPVQPPRPTDPNLIPSAPSKPEVTDVSKNTVTLLWQPNLNSGATPTSYIIEAFSHASGSSWQTVAENVKTETFAIKGLKPNAIYLFLVRAANAYGISDPSQISDPVKTQDVPPTTQGVDHKQVQRELGNVVLHLHNPTILSSSSVEVHWTVDQQSQYIQGYKILYRPSGASHGESEWLVFEVRTPTKNSVVIPDLRKGVNYEIKARPFFNEFQGADSEIKFAKTLEEAPSAPPRSVTVSKNDGNGTAILVTWQPPPEDTQNGMVQEYKVWCLGNETRYHINKTVDGSTFSVVIPSLVPGIRYSVEVAASTGAGPGVKSEPQF
modifications: left off: small tags and cut ends
notes: ROBO1-Ecto fused to HA (hemagglutinin) tag

B3: ROBO1-Ecto: recombinant soluble ROBO1 construct comprising the entire extracellular domain (protein)
chain: B2 chain
modifications: left off: small tags and cut ends
notes: recombinant soluble ROBO1 construct comprising the entire extracellular domain
- dome formation in response to a titration of ECD fragments (HC11 cells [1]): higher rates of dome formation
- PLIN2 protein expression (HC11 cells [2]): approximately two-fold; also recorded: increased
- WAP protein expression (HC11 cells [2]): approximately two-fold; also recorded: increased
- number of cells completely surrounded by lipid droplets (HC11 cells [3]): higher number of cells completely surrounded by lipid droplets
- Hes1 expression (Notch signaling): lower expression; also recorded: decreased
- Hey1 expression (Notch signaling): lower expression; also recorded: decreased
